We go through 9 molecules from patent US20170182124A1, “FGF21 Derivatives and Uses Thereof” (Novo Nordisk A/S, priority 2014, published 2017).

For orientation: EC50 means the concentration needed to bring the measured effect to its halfway point.

For one data set, the target named is 3T3-L1 adipocytes (Mus musculus, UniProt P16092+Q99N32). Briefly: Glucose uptake in 3T3-L1 adipocytes. It counts as cell-based. Particulars: stimulated 20 hours, 3H-deoxy-glucose. The procedure:
The C-terminal modified analogues were tested for their ability to increase glucose uptake in 3T3-L1 mouse adipocytes. The following assay was used for determining the biological activity, or potency, of FGF21 analogues and derivatives of the invention.
The in vitro potency may also be determined in an assay with mouse 3T3-L1 adipocytes by testing the FGF21 analogues and derivatives for their ability to increase glucose uptake into adipocytes. Differentiated 3T3-L1 adipocytes endogenously express FGFR1c and BKL. The 3T3-L1 cells are unresponsive to FGF21 until after differentiated as differentiation lead to expression of the co-receptor BKL. Activation of the FGFR1 receptor/BKL complex increase the expression of glucose transporter 1 (GLUT1) and therefore FGF21 agonists will lead to an increased amount of glucose taken into the adipocytes in a dose responsive manner.
Mouse 3T3-L1 fibroblasts (e.g. available from ATCC, catalogue no. CL-173) were maintained in basal medium (DMEM (4500 mg/I Glucose) with 10% Fetal Bovine Serum (FBS) and 1% Penicillin/Streptomycin). The cells are not allowed to reach confluence and should be passed (transferred to new vials) before reaching approx. 60% of confluency (by visual inspection).
For the glucose uptake assay, cells were 15.000 cells/well in a 96 well plate (BIOCOAT), and when they reached confluency (high density, with a view to have differentiated adipose cells made), the medium was changed from basal medium to basal medium containing Troglitazone, IBMX, Dexamethasone (commercially available from, e.g., Sigma) and human insulin (commercially available from, e.g., Novo Nordisk A/S).
The cells were used 7-9, days after initiation of differentiation. The cells were stimulated with increasing concentrations (0-300 nM) of the FGF21 analogues or derivatives of the invention for 20 hours in basal medium. Before addition of 3H-deoxy-glucose (in what follows: the tracer) the cells were washed in warm (approximately 37° C.) assay buffer (PBS with 1 mM MgCl2 and 2 mM CaCl2), HEPES and 0.1% Human serum albumin) and the cells were incubated with the tracer for 1 hour. This incubation was terminated by washing twice in ice cold assay buffer. The cells were lysed with Triton X-100 and lysates transferred to a 96 wells plate, microscint-40 (commercially available from, e.g., Perkin Elmer) was added and amount of tracer counted in a TOP-counter (e.g. a Packard top-counter from Perkin Elmer). The EC50 and Emax of the FGF21 compound in question were calculated. The results which are shown in tables 4-5 below indicate the EC50 (potency) and Emax (efficacy) of the FGF21 analogues and derivatives, respectively.

In a further data set the target is FGF receptor/BKL complex. Briefly: FGF receptor potency in an Erk phosphorylation assay in HEK293 overexpressing human BKL. It counts as cell-based. Particulars: HEK293/BKL cells, pERK after 12 minutes. Put shortly: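 pERK after 12 min analogue exposure at 37° C. was quantified by AlphaScreen SureFire in lysates of beta-klotho-transfected HEK293 cells. Assay medium was DMEM with 0.02% Tween20, run both without albumin and with 0.1% final HSA to probe albumin binding. Cells were starved 2 h in basal medium first. Absolute EC50 reported.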

The nature of data set [1]: Body weight reduction in lean mice. The class given is in vivo, lean C57BL mice. Particulars: s.c. 1 mg/kg BID for 7 days, change from baseline day 1 to 7. As for the experimental part:
In order to determine the in vivo potency of the FGF21 derivatives the effect on body weight was studied in lean C57BL mice after subcutaneous (s.c.) administration. It has previously been shown that the weight loss induced by FGF21 in lean mice is predictive of the effect in obese mice and therefore lean mice are considered a good screening model.
The compounds were administered s.c. 1 mg/kg either once (QD) or twice (BID) daily in 10 mM phosphate, 2% (w/vol) glycerol, 500ppm (=0.05%) polysorbate 80, pH=8.15, (2 ml/kg) for 7 days (n=7-8). The respective vehicle treated groups (control) were treated with 10 mM phosphate, 2% (w/vol) glycerol, 500ppm (=0.05%) polysorbate 80, pH=8.15, (2 ml/kg) s.c. twice daily for 7 days (n=6-8). Body weight was measured before dosing and again after 7 days treatment.

Data set [2] can be described thus: Pharmacokinetic study in mice (i.v.). Particulars: terminal half-life, single intravenous dose of 20 mg/kg, lean C57bl mice.
Procedure: This was done in a pharmacokinetic (PK) study, where the terminal half-life of the analogue in question was determined. By terminal half-life is meant the time it takes to halve a certain plasma concentration in the terminal elimination phase.
The pharmacokinetic profile of FGF21 analogues was tested in normal lean C57b1 mice, n =2-3 (approximately 30 grams). FGF21 compounds were dosed as a single intravenous dose of 20 mg/kg (approximately 5 ml/kg).
The plasma levels of the FGF21 compounds were determined using Fibroblast Growth Factor-21 Human ELISA (available from BioVendor, catalogue no. RD191108200R). The PC based software, WnNonLin version 6.3 from Pharsight Corportion, Cary N.C., was used for the pharmacokinetic calculation.
Where [3] appears, read: presence of 0.1% HSA, read-out: EC50 (0.1% HSA).

Like-named read-outs stand apart in the source and are kept apart here. Marks after values point to notes of the source that are not given here.

Chain of 3T3-L1 adipocytes (Q99N32 whole entry): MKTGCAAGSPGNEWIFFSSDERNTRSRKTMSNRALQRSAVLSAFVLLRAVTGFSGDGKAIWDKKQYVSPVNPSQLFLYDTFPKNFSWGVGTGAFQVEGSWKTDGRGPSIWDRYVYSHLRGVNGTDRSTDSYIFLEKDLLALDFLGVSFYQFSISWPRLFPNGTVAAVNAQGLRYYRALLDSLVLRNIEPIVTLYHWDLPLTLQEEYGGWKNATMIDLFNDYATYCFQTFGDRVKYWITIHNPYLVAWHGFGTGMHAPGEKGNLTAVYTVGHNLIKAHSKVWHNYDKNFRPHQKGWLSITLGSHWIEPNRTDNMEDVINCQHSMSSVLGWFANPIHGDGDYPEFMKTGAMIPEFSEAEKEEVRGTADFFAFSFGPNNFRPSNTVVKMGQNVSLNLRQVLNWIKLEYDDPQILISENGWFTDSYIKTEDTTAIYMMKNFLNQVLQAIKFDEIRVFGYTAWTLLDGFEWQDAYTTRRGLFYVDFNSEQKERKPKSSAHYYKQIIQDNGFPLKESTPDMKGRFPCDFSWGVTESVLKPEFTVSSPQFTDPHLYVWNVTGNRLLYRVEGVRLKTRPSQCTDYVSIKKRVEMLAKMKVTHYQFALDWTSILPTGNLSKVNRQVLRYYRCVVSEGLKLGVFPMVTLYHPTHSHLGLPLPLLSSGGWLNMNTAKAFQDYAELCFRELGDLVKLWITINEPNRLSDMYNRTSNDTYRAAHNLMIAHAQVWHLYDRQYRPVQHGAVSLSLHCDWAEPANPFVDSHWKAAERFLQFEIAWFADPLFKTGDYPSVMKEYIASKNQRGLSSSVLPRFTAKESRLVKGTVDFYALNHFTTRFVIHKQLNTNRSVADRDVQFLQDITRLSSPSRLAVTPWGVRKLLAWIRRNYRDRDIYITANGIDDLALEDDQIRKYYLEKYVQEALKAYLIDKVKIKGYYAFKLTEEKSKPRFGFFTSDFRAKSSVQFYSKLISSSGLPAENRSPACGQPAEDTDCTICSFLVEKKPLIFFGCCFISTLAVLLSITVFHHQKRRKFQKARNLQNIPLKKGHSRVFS
Chain of 3T3-L1 adipocytes (P16092 22-822): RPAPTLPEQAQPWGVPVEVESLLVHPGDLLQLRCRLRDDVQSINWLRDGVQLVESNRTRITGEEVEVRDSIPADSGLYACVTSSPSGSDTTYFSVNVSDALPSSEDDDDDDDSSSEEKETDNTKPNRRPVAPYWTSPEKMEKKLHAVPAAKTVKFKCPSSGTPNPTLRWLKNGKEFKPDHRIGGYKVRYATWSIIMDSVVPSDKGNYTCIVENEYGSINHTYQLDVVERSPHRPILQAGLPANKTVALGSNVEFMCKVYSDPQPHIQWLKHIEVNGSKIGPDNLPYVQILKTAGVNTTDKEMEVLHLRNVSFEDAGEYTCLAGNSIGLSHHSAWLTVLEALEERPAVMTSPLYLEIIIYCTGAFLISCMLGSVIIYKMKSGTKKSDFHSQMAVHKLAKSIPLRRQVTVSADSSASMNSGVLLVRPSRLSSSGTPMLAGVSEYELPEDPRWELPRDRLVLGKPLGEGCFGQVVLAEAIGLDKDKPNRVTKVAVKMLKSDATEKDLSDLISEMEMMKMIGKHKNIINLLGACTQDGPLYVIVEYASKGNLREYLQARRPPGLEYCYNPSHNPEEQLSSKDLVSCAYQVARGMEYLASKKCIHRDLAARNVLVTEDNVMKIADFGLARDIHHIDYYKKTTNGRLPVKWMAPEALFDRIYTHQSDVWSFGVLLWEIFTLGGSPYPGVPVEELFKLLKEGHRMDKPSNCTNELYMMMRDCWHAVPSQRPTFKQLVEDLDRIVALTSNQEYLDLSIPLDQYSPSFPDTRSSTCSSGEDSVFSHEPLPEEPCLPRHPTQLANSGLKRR
Chain of FGF receptor/BKL complex (Q86Z14 whole entry, one chain of several): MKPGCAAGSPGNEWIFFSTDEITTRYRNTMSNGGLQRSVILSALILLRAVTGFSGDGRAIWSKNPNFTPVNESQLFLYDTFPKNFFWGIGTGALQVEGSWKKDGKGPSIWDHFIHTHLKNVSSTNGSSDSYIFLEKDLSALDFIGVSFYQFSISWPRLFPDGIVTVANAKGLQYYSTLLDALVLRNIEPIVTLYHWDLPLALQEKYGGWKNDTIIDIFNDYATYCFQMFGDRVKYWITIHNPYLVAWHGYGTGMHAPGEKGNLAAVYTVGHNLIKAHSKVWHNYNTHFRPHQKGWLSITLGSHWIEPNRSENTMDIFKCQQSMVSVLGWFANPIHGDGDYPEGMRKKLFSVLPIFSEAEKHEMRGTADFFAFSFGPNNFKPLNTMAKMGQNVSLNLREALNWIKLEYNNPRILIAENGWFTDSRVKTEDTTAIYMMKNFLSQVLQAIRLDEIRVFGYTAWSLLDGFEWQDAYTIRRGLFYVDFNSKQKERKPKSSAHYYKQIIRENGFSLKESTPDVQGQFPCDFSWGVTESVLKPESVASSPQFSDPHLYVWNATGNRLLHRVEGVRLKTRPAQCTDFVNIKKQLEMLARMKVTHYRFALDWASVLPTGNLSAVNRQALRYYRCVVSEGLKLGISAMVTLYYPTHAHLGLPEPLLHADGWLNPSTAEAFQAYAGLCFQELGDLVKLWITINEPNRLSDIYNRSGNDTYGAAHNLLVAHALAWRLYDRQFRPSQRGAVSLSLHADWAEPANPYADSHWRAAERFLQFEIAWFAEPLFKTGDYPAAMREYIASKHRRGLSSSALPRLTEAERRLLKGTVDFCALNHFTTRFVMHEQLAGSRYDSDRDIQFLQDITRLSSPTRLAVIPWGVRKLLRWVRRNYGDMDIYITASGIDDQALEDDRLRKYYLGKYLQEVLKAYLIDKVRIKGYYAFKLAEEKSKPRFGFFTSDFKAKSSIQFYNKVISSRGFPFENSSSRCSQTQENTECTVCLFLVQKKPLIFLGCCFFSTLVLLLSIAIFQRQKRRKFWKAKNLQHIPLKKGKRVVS

B1: Ala[Gln121, Leu168]FGF21 (protein)
chain: AHPIPDSSPLLQFGGQVRQRYLYTDDAQQTEAHLEIREDGTVGGAADQSPESLLQLKALKPGVIQILGVKTSRFLCQRPDGALYGSLHFDPEACSFRELLLEDGYNVYQSEAHGLPLHLPGQKSPHRDPAPRGPARFLPLPGLPPALPEPPGILAPQPPDVGSSDPLSLVGPSQGRSPSYAS
modifications: N-terminal Ala
Turning to B1, the EC50 with 3T3-L1 adipocytes came to 3.1 nM; at FGF receptor/BKL complex (absence of HSA, read-out: EC50), 2 nM. The “Glucose uptake Emax” value with 3T3-L1 adipocytes came to 85%. Moreover, in data set [1], the “Mean Δ body weight (%)” value is reported as −1.98** %.

B2: S{Beta-181}-[2-[2-[[2-[2-[2-[[2-[2-[2-[[(4S)-4-carboxy-4-(17-carboxyheptadecanoyl-amino)butanoyl]amino]ethoxy]ethoxy]acetyl]amino]ethoxy]ethoxy]acetyl]amino]-ethylamino]-2-oxoethyl]-Met[Cys181]FGF21 (protein)
chain: MHPIPDSSPLLQFGGQVRQRYLYTDDAQQTEAHLEIREDGTVGGAADQSPESLLQLKALKPGVIQILGVKTSRFLCQRPDGALYGSLHFDPEACSFRELLLEDGYNVYQSEAHGLPLHLPGNKSPHRDPAPRGPARFLPLPGLPPALPEPPGILAPQPPDVGSSDPLSMVGPSQGRSPSYAC
The molecule B2 returned a Half-life mice in data set [2] of 12 h.

B3: S{Beta-176}-2-aminoethylsulfanyl-Ala[Gln121, Leu168, Cys176]FGF21 (protein)
chain: AHPIPDSSPLLQFGGQVRQRYLYTDDAQQTEAHLEIREDGTVGGAADQSPESLLQLKALKPGVIQILGVKTSRFLCQRPDGALYGSLHFDPEACSFRELLLEDGYNVYQSEAHGLPLHLPGQKSPHRDPAPRGPARFLPLPGLPPALPEPPGILAPQPPDVGSSDPLSLVGPSQGRCPSYAS
modifications: cysteamine-protected Cys176
With B3, in the data set with 3T3-L1 adipocytes, the EC50 was determined as 73 nM and the “Glucose uptake Emax” value was determined as 84%. Further, the EC50 on FGF receptor/BKL complex (absence of HSA, read-out: EC50) turned out to be 227 nM.

B4: S{Beta-179}-[2-[2-[[2-[2-[2-[[2-[2-[2-[[(4S)-4-carboxy-4-(15-carboxypentadecanoyl-amino)butanoyl]amino]ethoxy]ethoxy]acetyl]amino]ethoxy]ethoxy]acetyl]amino]-ethylamino]-2-oxoethyl]-Ala[Gln121,Leu168, … (protein)
chain: HPIPDSSPLLQFGGQVRQRYLYTDDAQQTEAHLEIREDGTVGGAADQSPESLLQLKALKPGVIQILGVKTSRFLCQRPDGALYGSLHFDPEACSFRELLLEDGYNVYQSEAHGLPLHLPGQKSPHRDPAPRGPARFLPLPGLPPALPEPPGILAPQPPDVGSSDPLSLVGPSQGRSPSCAS
With B4, the EC50 was 107 nM with 3T3-L1 adipocytes; 107 nM on FGF receptor/BKL complex (absence of HSA, read-out: EC50); 134 nM at FGF receptor/BKL complex (setting [3]). Further, in the data set with 3T3-L1 adipocytes, the “Glucose uptake Emax” value came out at 54%.

B5: S{Beta-180}-[2-[2-[[2-[2-[2-[[2-[2-[2-[[(4S)-4-carboxy-4-(19-carboxynonadecanoyl-amino)butanoyl]amino]ethoxy]ethoxy]acetyl]amino]ethoxy]ethoxy]acetyl]amino]-ethylamino]-2-oxoethyl]-Ala[Gln121,Leu168,C … (protein)
chain: HPIPDSSPLLQFGGQVRQRYLYTDDAQQTEAHLEIREDGTVGGAADQSPESLLQLKALKPGVIQILGVKTSRFLCQRPDGALYGSLHFDPEACSFRELLLEDGYNVYQSEAHGLPLHLPGQKSPHRDPAPRGPARFLPLPGLPPALPEPPGILAPQPPDVGSSDPLSLVGPSQGRSPSYCS
Regarding B5, the EC50 with 3T3-L1 adipocytes came out at 24 nM; at FGF receptor/BKL complex (absence of HSA, read-out: EC50), 5 nM; at FGF receptor/BKL complex (setting [3]), 133 nM. For the same molecule, the “Glucose uptake Emax” value with 3T3-L1 adipocytes stood at 53%.

B6: S{Beta-181}-[2-[2-[[2-[2-[2-[[2-[2-[2-[[(4S)-4-carboxy-4-(11-carboxyundecanoyl-amino)butanoyl]amino]ethoxy]ethoxy]acetyl]amino]ethoxy]ethoxy]acetyl]amino]-ethylamino]-2-oxoethyl]-Ala[Gln121,Leu168,Cys … (protein)
chain: HPIPDSSPLLQFGGQVRQRYLYTDDAQQTEAHLEIREDGTVGGAADQSPESLLQLKALKPGVIQILGVKTSRFLCQRPDGALYGSLHFDPEACSFRELLLEDGYNVYQSEAHGLPLHLPGQKSPHRDPAPRGPARFLPLPGLPPALPEPPGILAPQPPDVGSSDPLSLVGPSQGRSPSYAC
Take B6: the Half-life mice in data set [2] came to 1 h. In addition, the EC50 at FGF receptor/BKL complex (absence of HSA, read-out: EC50) is 154 nM; on FGF receptor/BKL complex (setting [3]), 137 nM. In addition, the “Mean Δ body weight (%)” value in data set [1] is on record as 0.04%.

B7: S{Beta-181}-[2-[2-[[2-[2-[2-[[2-[2-[2-[[(4S)-4-carboxy-4-(19-carboxynonadecanoyl-amino)butanoyl]amino]ethoxy]ethoxy]acetyl]amino]ethoxy]ethoxy]acetyl]amino]-ethylamino]-2-oxoethyl]-Ala[Gln121,Leu168,C … (protein)
chain: HPIPDSSPLLQFGGQVRQRYLYTDDAQQTEAHLEIREDGTVGGAADQSPESLLQLKALKPGVIQILGVKTSRFLCQRPDGALYGSLHFDPEACSFRELLLEDGYNVYQSEAHGLPLHLPGQKSPHRDPAPRGPARFLPLPGLPPALPEPPGILAPQPPDVGSSDPLSLVGPSQGRSPSYAC
As to B7, the EC50 in the data set with 3T3-L1 adipocytes was determined as 410 nM; on FGF receptor/BKL complex (absence of HSA, read-out: EC50), 58 nM; on FGF receptor/BKL complex (setting [3]), 434 nM. In addition, the “Glucose uptake Emax” value with 3T3-L1 adipocytes is 57%. This molecule also registered a Half-life mice in data set [2] of 19 h.

B8: S{Beta-180}-[2-[2-[[2-[2-[2-[[2-[2-[2-[[(4S)-4-carboxy-4-(17-carboxyheptadecanoyl-amino)butanoyl]amino]ethoxy]ethoxy]acetyl]amino]ethoxy]ethoxy]acetyl]amino]-ethylamino]-2-oxoethyl]-Ala[Gln121,Leu168, … (protein)
chain: HPIPDSSPLLQFGGQVRQRYLYTDDAQQTEAHLEIREDGTVGGAADQSPESLLQLKALKPGVIQILGVKTSRFLCQRPDGALYGSLHFDPEACSFRELLLEDGYNVYQSEAHGLPLHLPGQKSPHRDPAPRGPARFLPLPGLPPALPEPPGILAPQPPDVGSSDPLSLVGPSQGRSPSYC
On to B8, for which the EC50 is 8 nM with 3T3-L1 adipocytes; 8 nM at FGF receptor/BKL complex (absence of HSA, read-out: EC50); 20 nM on FGF receptor/BKL complex (setting [3]). The “Glucose uptake Emax” value in the data set with 3T3-L1 adipocytes was 71%.

B9: S{Beta-180}-2-aminoethylsulfanyl-Ala[Gln121, Leu168, Cys180, des181]FGF21 (protein)
chain: AHPIPDSSPLLQFGGQVRQRYLYTDDAQQTEAHLEIREDGTVGGAADQSPESLLQLKALKPGVIQILGVKTSRFLCQRPDGALYGSLHFDPEACSFRELLLEDGYNVYQSEAHGLPLHLPGQKSPHRDPAPRGPARFLPLPGLPPALPEPPGILAPQPPDVGSSDPLSLVGPSQGRSPSYC
modifications: N-terminal Ala; cysteamine disulfide on Cys180
Turning to B9, in the data set with 3T3-L1 adipocytes, the EC50 was 73 nM and the “Glucose uptake Emax” value was determined as 72%. For the same molecule, the EC50 on FGF receptor/BKL complex (absence of HSA, read-out: EC50) worked out at 20 nM.
